Assay: yeast display, Sf9 membrane polyspecificity reagent, FACS + sequencing; frameworks hold sequencing errors
How it was run: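 Galactose-induced (36–48 hours) yeast carrying a synthetic nanobody display library were exposed to 10% biotinylated, detergent-solubilized Sf9 membrane reagent at 4 °C for 1 hour. FACS followed streptavidin microbead enrichment, using low and high (top ~1%) gates for expression (anti-HA) and reagent binding (streptavidin). Colony PCR, MiSeq 2 × 250 sequencing and CDR-length filtering followed. Labels for polyreactivity reflect the gate of origin.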

Row | Sequence | polyreactivity (PSR sort gate)
1 | QVQLVESGGGLVQAGGSLRLSCAASGSTFAFYAMGWYRQAPGKERELVAAISSSGARTYYADSVKGRFTLSRDNAKNTVYLQMNSLKPEDTAVYYCAAAFYRLYITSYYYWGQGTQVTVSS | high polyreactivity
2 | QVQLVEEGGGLVQAGGSLSLSCAASGRIFKTNSMGWYIQAPGKERELVAGSTDSGDSTYYADSVKGRFTISRDNAKNTVYLQMNSLKPEDTAVYYCATDPASPYIYDYWGQGTQVTVSS | low polyreactivity
3 | QVQLVESGGGLVQAGGSLRLSCAASGSTFSDYAMGWYRQAPGKERELVAGITETGTTTYYADSVKGRFTISRDNAKNTVYLQMNSLKPEDTAVYYCAAYVVTYYYGTGYYSYDYWGQGTQVNVSS | low polyreactivity
4 | QVLLVESGGGLVQAGGSLRLICAASGSIFGVYAMGWFRQAAGKDRELVAAISLSGTSTYYADSVKGRFTISRDNAKNTVYLQMNSLKAEDTAVYYCAAPWRLFSLYDYWGQGTQVTVSS | low polyreactivity
5 | QVQLVESGGCLVQAGGSLRLSCAASGRIFNYNAMGWYRQAPGKARELVAVITSGDSTNYADSVKGRFTISRDNAKNNVYLQMNSLKPEDTAVYYCAAEYYSIRYGPHSIEVYGMDYWGQGTQVTVSS | low polyreactivity
6 | QVQLEESGGGLVQAGGSLRLSCAASGLIFIVYAMGWYRQAPGKERELVAAISFSGGSTYYADSVKGRFTISRDNAKNTVYLQMNSLKPEDTAVYYCAARARYTRRGRNYDYWGQGTQVTVSS | high polyreactivity
7 | QVQLVESGGGLVQAVGSLRLSCAASGRIFNYYAMGWYRQAPGKEREMVAGISGYGTSTYYADSVKGRFTISRDNAKNTVYLQMNSLKPEDTAVYYCAADVFRDDVWLDYWGHGTQVTVSS | low polyreactivity
8 | QVQLVESGGGLVQAGGSLRLSCAASGRTFFKYAMGWYRQAPGKERELVAAITGRGGSTYADSVKGRFTISRDNAKNTVYLQMNCLKPEDTAVYYCAKVFQRGAQYYYYKYDYWGQGTQVTVSS | high polyreactivity
9 | QVQLVESGGGLVQAGGSLRLSCAASGRTLWANAMGWYRQAPGKERELVAAITYSGGSTHYADSVKGRFTISRDNAKNTVYLQMNSLKPEDTAVYYCNADYDSYYTYLYDYWGQGTQVTVSS | low polyreactivity
10 | QVQLQESGGVLVQAGGSLRLSCAASGSIFVSVTMGWYRQAPGKERELVASIGRGSTTNHADSVKGRFTISRDNAKNIVYLLMNSLKPEDTAVYYCAALESYGKYHGYWGQGTQVTVSS | low polyreactivity
11 | QVQLVESGGGLVQAGGSLRLSCAASGIIFRWYTMGWYRQAPGKERELVAAISTSTGSTYYADSVKGRFTISRDNAKNTVYLQMNSLKPEDTAVYYCNARQFSGLGYWGQGTQVTVSS | high polyreactivity
12 | QVQLVESGGGLVQAGGSLRLSCAASGRIFTRYAMGWYRKEPGKERELVAAISYGGGGTYYADSVKGRFTISRDNAKNTVYLQMNSLKPEDTAVYYCATDDPLSQINEQGMDYWGQGTQVTVSS | low polyreactivity
13 | QVQLVESGGGLVQAGGSLRLSCAASRSIFSWYAMGWYRTAPGTERELVAAITWTGGSTYYADSVKGRFTISRDNAKNTVYLQMKSLKTEDTAVYYCAARRVVYRKYGDRGRWYNYWGQGTQVTVSS | high polyreactivity
14 | QVQLVESGGGLVQAGGSLRLSCAASGSTSAYYAMGWYRQAPGKERELVAAISWSGGLTYYADSVKGRFTISRDNAKNTVYLQMNSLKPEDTAVYYCAASSYPYGYDYWGQGTQVTVSS | high polyreactivity
15 | QVQLVESGGGLVQAGGSLRLSCAASGSTFGSYTMGWYRQAPGKERELVAAISYSSGRTYYADSVKGRFTISRDNAKNTVYLQMNSLKPEDTAVYYCAAVSRGRGEYDYWGQGTQLTVSS | high polyreactivity
16 | QVQLVETGGGLFQAGGTLLLSCAASGRIFIRNALVWYRQAPGKEWELVAAIRTRDASTYYADSVKGRFTISRDIAKNTVYLLMNSLKPVDTAVYYCNADTTWPSSSGPTTFGQGDYWGQGTQVTVSS | low polyreactivity
17 | QVQLVESGGGLVQAGGSLRLSCAASGRTFFANAMGWYRQAPGKERELVAAISGSGDRTYYADSVKGRFTISRDNAKNTVYLQMNSLKPEDTAVYYCAAAGWSARGYNYWGQGTQVTVSS | high polyreactivity
18 | QVQLVESGGGLVQAGGSLRLSCAASGFTFYRYAMGWYRPAPGKERELVAAISKSGGTTFYADSVKGRFTISRDNAKNTVYLQMNSLKPEDTEVYYCAVDVPYVQSYIPDPPNVYYWGQGTQVTVSS | high polyreactivity
19 | QVQLVESGGGLVQAGGSLRLSCAASGLTFYFYAMGWYRQAPGKERELVAAISYSGGSTYYADSVKGRFTISRDKAENTVYLQMNSLKPEDTAVYYCAARPTDGSGWPYRWTSDYWGHGTQVTVSS | low polyreactivity
20 | QVQLVESGGGLVQAGGSLRLSCAASGSTFGRNTMGWYRKAPGKERELVASITRSSTSTNYADSVKGRFTISRDNAKNTVYLQMNSLKPEDTAVYYCAARALRTDRSPVGSHEYWGQGTQVTVSS | low polyreactivity
21 | QVQLVESGGGLVHAGGSIRLSCAASGRTFAYNDMGWYTQAPGTERELVAAISWSDGTTYYADSVKGRFTISRDNAKNPVYLQMHCLKPEDTAVYYCAAESYPSEVASYVSEYDYWGQGTQVTVSS | low polyreactivity
22 | QVQLEESGGGLVQAGGRLRLSCAASGSNTRTYAMGWYRQAHGKERELVAAISSSVCRTYYADSVKGRFTISRDNEKNTVYLQMNSLKPEDTAVYYCNSRTYSYRGYNYWGQGTQVTVSS | high polyreactivity

Row | Sequence | polyreactivity (PSR sort gate)
23 | QVQLVESGGGLVQAGGSLRLSCAATGRIFTYMGWYRQAPGKERELVAGISWRGTSTYYADSVKGRFTISRDNAKNTVYLQMNSLKPEDTAVYYCAARWAYHVRGDYWGQGTQVTVSS | low polyreactivity
24 | QVQLGESAGGLVQAGGSLRLSCAATGRTFRWYTMGWYRQAPGKERELVAGIRSTGGSTYYADSVKGRFTISRDNAKNTVYLQMNSLKPEDTEVYYCAIVTLTSRYASYYYWGQGTQVTVSS | high polyreactivity
25 | QVQLVESRGGLVQAGGSLRLSCAASGFTFDIYAMGWYRQAPGKERELVAAINYSGARTYYADSVKGRFTISRDNAKNTVYLQMNSLNPEDTAVYYCNRAARIKYDYWGQGTQVTVSS | high polyreactivity
26 | QVLLQESGGGLVQAGGSLRLGCAASGTISPAYYMGRSLQAPGKEREFVAAITYGTNTYYADSVKGRFTISRDNAKNTVYLQMNSLKPEDTAVYYCSATAGYNGAHDYWGQATQVTVSS | low polyreactivity
27 | QVQLVESGGGLVQAGGSLRLSCAASGSIFPDYAMGWYRPAPGKERELVAAIDTSTTDTYYADSVKGRFTISRDNAKNTVYLQMKSQKPEDTAVYYSAADAYDDPYGFWGQGTQVTVSS | high polyreactivity
28 | QVQLVESGGGLVQAGGSLRLSCDASGSTFPKYAMGWYRQAHGKERELVAAITSSGGRTFYADSVKGRFTISRDNAKNTVYLQMNSLKPEDTAVYYCAAYYYSWSGAFIYDYWGQGTQVTVSS | high polyreactivity
29 | QVQLVESGGGLVQAGGSLRLSCAASGLTFGRYAMGWYRQAPGKERELVAAITWIGDGTYYGDSVKGRFTISRDNAKKTVYLQMNSLTPEDTAVYYCAAVYYTYLYGRYNYWGQGTQVTVSS | low polyreactivity
30 | QVQLVESGGGLVQAGGSLSLSCAASGFTFGTYTMGWYRQAPRKEREFVAAISFSGTTTYYADSVKGRFTISRDNAKNTVYLQMNSLKPEDTAVYYCATRSPRKGVKGHFRYYYWGQGTQVTVSS | high polyreactivity
31 | QFQLVESGGGLVQAGGSHRLICAASGRTFPYYAKGWYRQAPGKERELVATINTGTSTNYADSVKGRFTISRDNANNTVYLQMHSLKPEDTAVYYCAAATTYGKSEYDYWGQGTQVTVSS | high polyreactivity
32 | QVQLVESGGGLVQAGGSLRLSCPASGLIFRSYAMGRYRQAPGKERELVARISIRGGSTYYADSVKGRFTISRDNAKNTVYLQMNSLKPEDTAVYYCAAVGYLGGYRYDYWGQGTQVTVSS | high polyreactivity
33 | QVQLVESGGGLVQAGGSLRISCAASGLYAMGWYRQAPGKERELVADINSSGGSITNYADSVKGRFTISRDNAKNTVYLQMNSLKPEDTAVYYCNPDVPGDTGWWGFDYWGQGTQVTVSS | low polyreactivity
34 | QVQLVESWGGLVQAGGSLRLSCAASGFIFDNNALGWYRQAPGKERELVADISRSGGSTYADSVKGRFTISRDNAKNTVYFQMNSLKAEDTAVYYCAKDFQGRRPPKEPSAFYYWGQGTQVTVSS | low polyreactivity
35 | QVQLVESGGGLVQAGGSLRLICAASGSTFFYNAMGWYRQAPGKEREFVAAIRWRGGSTYYADSVKGRFTISRDNAKNTVYLQMNSLKPEDTAVYYCAAVYYRWEYDYWGQGTQVTVSS | high polyreactivity
36 | QVQLVESGGGLVQAGGRLRLSCAASGSIFRSNAMGWYRLAPGKEREFVAASTRSGGSTYYADTVKGRFTISRDNAKNTVYLQMNSLKPAATAVYYCAADWKSYAYYYWGQGTQVTVSS | high polyreactivity
37 | QVQLVESGGGLVQAGGSLRLSCAASGRIFPLYAMGWYRQAPGKERELVAAITWRAGITYYADSVKGRFTISRDNAKNTVYLQMNSLKPEDTAVYYCAARFVRGRGFAYGYWGQGTQVTVSS | high polyreactivity
38 | QVQLVESGGGLVQAGGSLRLSCAASGSTFAPNALGWSRQAPGKERELVAAIRTNTVSTYYADSVKGRFTISRDNAKNTVYLQMNSLKPEDTEVYYCAAVFSGFYYAYDYWGQGTQVTVSS | high polyreactivity
39 | QVQLVESGGGLVQAGGSLRLSCAASGSIFYRYAMGWYRQAPGKERELVAAISSGSSTHYADSVKGRFTISRDNAKNTVYLQMNSLKPEDTAVYYCAARYRAFTSTRRFDYWGQGTQVTVSS | high polyreactivity
40 | QVQLVESGPGLVQAGGSLRLSCAASGSTFAPYALGWYRQAPGIEMELVAAIRSSGGSTYYADSVKGGFTISRDNAKNTVYLQMNSLKPEDTAVYYCADDYYTSADYVDYYYWGQGTQVTVSS | low polyreactivity
41 | QVQLVESGGGLVQAGGSLRLSCAASGFIFLAYTMGWYRQAPGKERELVAAISTSGGSTYYEDSVKGRFTISRDNAKNTVYLQMNSLKPEDTAVYYCAARYRWGRYDYWGQGTQVTVSS | high polyreactivity
42 | QVQLVESGGGLVQAGGSLRLSCAASGFIFGRYTMGWYSQAPGKERELVAAISSRGGSTYYADSVKGRFTISRDNAKNTVYLQMNSLKPEDTAVYYCAADEIYGYDYWGQGTQVTVSS | high polyreactivity
43 | QVQLVESGGGLVQAGGSLRLSCAASGRIFRGYGMGWYSQAPGKERVLVAAITSRGGSTYYADSVKGRFTSSRDNAKNTVYLQMNSLKPQDTAVYYCYAVAFYYVGSKTYTRGLDYWGQGTQVTVSS | high polyreactivity
